Results from publication PMC9116609 (Science Advances, 2022).
Values belong to the molecule of their own block, whether it stands above or below them.

T1: shcis-PT (soluble human cis-prenyltransferase complex, DHDDS-NgBR) (Homo sapiens, UniProt Q86SQ9)
T1 sequence (Q86SQ9 1-333): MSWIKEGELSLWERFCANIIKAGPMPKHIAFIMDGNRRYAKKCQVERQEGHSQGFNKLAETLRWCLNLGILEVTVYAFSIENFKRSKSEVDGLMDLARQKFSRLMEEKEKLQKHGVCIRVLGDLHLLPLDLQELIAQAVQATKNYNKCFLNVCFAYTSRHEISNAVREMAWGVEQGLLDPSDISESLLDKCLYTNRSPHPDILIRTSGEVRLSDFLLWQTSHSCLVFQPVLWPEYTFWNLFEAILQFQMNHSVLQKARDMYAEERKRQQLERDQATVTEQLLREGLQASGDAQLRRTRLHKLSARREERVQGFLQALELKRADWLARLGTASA
T1 sequence (Q96E22 73-293 partner): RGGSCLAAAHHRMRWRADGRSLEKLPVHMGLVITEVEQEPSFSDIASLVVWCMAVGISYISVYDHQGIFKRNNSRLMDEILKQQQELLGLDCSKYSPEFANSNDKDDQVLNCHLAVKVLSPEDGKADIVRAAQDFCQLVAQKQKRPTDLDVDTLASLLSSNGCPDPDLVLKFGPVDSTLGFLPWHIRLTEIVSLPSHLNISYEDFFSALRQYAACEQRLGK

B1: dehydrodolichyl diphosphate synthase (DHDDS), residues 1 to 333 (enzyme)
chain: T1 sequence (Q86SQ9 1-333)
B2: Nogo B-receptor (NgBR), pseudo cis-prenyltransferase domain, residues 73 to 293 lacking residues 167 to 175 (domain or fragment)
chain: RGGSCLAAAHHRMRWRADGRSLEKLPVHMGLVITEVEQEPSFSDIASLVVWCMAVGISYISVYDHQGIFKRNNSRLMDEILKQQQELLGLDCSKDKDDQVLNCHLAVKVLSPEDGKADIVRAAQDFCQLVAQKQKRPTDLDVDTLASLLSSNGCPDPDLVLKFGPVDSTLGFLPWHIRLTEIVSLPSHLNISYEDFFSALRQYAACEQRLGK

Legend:
[1] = target: T1, shcis-PT (soluble human cis-prenyltransferase complex, DHDDS-NgBR); experiment: displacement of MANT-O-GPP followed by FRET; type: binding; details: competition with 10 μM MANT-O-GPP; pH 7.5, 0.5 mM MgCl2, 1 μM enzyme; S1 site
crystal structure = target: the molecule itself; experiment: crystal structure
[2] = target: B1; experiment: crystal structure

- IC50 [1]: 10.5 ± 3 µM
Molecule: CC(C)=CCC/C(C)=C/CC/C(C)=C/CO[P@@](=O)(O)OP(=O)(O)O [FPP]

Molecule: B1
- binding result (crystal structure): binds

Molecule: B2
- binding result [2]: binds
